In publication doi:10.1101/2022.10.10.511565:

Molecular target: Lon-His (C. crescentus) (UniProt B8GX12)
Sequence of UniProt B8GX12 (B8GX12 whole entry): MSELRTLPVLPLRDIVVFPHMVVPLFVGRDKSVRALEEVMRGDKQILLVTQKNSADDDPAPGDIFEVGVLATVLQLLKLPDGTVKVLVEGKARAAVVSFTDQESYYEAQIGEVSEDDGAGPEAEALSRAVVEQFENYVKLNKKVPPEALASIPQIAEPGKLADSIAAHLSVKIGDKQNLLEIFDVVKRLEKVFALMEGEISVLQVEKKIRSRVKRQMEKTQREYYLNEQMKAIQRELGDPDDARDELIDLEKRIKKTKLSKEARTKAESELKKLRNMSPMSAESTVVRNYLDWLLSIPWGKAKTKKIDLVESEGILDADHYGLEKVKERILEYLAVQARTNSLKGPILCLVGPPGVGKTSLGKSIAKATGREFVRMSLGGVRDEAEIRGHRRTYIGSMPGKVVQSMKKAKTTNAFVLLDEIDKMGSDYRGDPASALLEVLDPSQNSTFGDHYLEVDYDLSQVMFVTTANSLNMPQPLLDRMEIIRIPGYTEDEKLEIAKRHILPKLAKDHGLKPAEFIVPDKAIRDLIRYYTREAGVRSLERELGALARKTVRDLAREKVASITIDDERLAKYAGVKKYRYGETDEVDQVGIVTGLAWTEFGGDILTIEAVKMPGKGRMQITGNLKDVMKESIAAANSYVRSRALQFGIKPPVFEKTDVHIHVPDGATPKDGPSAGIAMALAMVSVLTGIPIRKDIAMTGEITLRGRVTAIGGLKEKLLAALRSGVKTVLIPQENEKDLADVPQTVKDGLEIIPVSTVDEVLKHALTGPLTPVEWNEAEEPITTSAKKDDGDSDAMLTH

## His-SciP (natural protein)
  Km of His-SciP degradation by Lon-His (0.05 µM hexamer), without LarA: 9.3 µM
